Measurements reported in US20230013244A1 (BioIncept, LLC, priority 2014, published 2023).

What was measured:
[1] = molecular target: Actin, cytoplasmic 1 (human) (UniProt P60709); assay: PIF affinity column + LC-MS/MS, CD8+ cell lysate
[2] = molecular target: Cartilage oligomeric matrix protein (human) (UniProt P49747); assay: PIF affinity column + LC-MS/MS, CD8+ cell lysate
Cofilin-1 (human) [3] = molecular target: Cofilin-1 (human) (UniProt P23528); assay: PIF affinity column + LC-MS/MS, CD8+ cell lysate
Cofilin-1 (human), sequence (P23528 2-166 limits assumed): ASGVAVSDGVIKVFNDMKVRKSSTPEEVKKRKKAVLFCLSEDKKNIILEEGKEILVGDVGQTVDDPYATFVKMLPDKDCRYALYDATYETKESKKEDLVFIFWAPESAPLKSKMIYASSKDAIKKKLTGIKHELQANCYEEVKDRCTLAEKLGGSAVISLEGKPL

[4] = molecular target: Hepatoma-derived growth factor (human) (UniProt P51858); assay: PIF affinity column + LC-MS/MS, CD8+ cell lysate
[5] = molecular target: Isoform 2 of Protein SET (human) (UniProt Q01105); assay: PIF affinity column + LC-MS/MS, CD8+ cell lysate
Isoform 2 of Protein SET (human), sequence (Q01105 other isoform, or with tags, fused parts or gaps limits assumed): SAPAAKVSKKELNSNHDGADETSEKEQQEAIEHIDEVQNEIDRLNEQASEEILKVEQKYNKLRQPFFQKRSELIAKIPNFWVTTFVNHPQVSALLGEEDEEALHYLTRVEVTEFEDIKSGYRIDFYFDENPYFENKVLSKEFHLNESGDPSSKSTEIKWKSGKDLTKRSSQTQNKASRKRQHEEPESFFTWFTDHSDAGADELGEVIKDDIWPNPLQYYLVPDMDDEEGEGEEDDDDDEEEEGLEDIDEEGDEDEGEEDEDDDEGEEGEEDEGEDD

[6] = molecular target: Nuclease-sensitive element-binding protein 1 (Fragment) (human) (UniProt P67809); assay: PIF affinity column + LC-MS/MS, CD8+ cell lysate
Nucleolin (human) = Nucleolin (human) (UniProt P19338); assay: PIF affinity column + LC-MS/MS, CD8+ cell lysate
Nucleolin (human), sequence (P19338 2-710 limits assumed): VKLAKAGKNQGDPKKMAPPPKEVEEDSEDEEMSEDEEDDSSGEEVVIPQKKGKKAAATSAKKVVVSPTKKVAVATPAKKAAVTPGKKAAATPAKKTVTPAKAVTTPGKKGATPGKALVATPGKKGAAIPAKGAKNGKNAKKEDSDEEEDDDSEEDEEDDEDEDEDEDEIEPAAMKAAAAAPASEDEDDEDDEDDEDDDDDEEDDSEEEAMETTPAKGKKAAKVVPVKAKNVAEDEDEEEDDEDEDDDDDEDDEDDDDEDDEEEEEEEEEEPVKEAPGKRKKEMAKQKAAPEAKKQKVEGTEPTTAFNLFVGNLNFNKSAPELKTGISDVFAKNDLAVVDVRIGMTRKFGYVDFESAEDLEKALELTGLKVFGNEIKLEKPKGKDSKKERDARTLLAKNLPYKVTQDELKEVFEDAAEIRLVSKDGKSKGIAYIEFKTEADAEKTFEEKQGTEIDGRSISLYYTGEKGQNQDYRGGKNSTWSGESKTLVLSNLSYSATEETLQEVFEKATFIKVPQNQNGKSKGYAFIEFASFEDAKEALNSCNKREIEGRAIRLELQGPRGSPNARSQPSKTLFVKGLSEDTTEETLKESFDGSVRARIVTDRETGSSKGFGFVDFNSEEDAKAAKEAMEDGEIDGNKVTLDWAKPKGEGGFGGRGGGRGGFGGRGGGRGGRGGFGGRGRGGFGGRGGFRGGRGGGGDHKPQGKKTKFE

[7] = molecular target: Serine/arginine-rich-splicing factor 1 (human) (UniProt Q07955); assay: PIF affinity column + LC-MS/MS, CD8+ cell lysate
Serum albumin (human) [8] = molecular target: Serum albumin (human) (UniProt P02768); assay: PIF affinity column + LC-MS/MS, CD8+ cell lysate
Talin-1 (human) = Talin-1 (human) (UniProt Q9Y490); assay: PIF affinity column + LC-MS/MS, CD8+ cell lysate
Talin-1 (human), sequence (Q9Y490 whole entry): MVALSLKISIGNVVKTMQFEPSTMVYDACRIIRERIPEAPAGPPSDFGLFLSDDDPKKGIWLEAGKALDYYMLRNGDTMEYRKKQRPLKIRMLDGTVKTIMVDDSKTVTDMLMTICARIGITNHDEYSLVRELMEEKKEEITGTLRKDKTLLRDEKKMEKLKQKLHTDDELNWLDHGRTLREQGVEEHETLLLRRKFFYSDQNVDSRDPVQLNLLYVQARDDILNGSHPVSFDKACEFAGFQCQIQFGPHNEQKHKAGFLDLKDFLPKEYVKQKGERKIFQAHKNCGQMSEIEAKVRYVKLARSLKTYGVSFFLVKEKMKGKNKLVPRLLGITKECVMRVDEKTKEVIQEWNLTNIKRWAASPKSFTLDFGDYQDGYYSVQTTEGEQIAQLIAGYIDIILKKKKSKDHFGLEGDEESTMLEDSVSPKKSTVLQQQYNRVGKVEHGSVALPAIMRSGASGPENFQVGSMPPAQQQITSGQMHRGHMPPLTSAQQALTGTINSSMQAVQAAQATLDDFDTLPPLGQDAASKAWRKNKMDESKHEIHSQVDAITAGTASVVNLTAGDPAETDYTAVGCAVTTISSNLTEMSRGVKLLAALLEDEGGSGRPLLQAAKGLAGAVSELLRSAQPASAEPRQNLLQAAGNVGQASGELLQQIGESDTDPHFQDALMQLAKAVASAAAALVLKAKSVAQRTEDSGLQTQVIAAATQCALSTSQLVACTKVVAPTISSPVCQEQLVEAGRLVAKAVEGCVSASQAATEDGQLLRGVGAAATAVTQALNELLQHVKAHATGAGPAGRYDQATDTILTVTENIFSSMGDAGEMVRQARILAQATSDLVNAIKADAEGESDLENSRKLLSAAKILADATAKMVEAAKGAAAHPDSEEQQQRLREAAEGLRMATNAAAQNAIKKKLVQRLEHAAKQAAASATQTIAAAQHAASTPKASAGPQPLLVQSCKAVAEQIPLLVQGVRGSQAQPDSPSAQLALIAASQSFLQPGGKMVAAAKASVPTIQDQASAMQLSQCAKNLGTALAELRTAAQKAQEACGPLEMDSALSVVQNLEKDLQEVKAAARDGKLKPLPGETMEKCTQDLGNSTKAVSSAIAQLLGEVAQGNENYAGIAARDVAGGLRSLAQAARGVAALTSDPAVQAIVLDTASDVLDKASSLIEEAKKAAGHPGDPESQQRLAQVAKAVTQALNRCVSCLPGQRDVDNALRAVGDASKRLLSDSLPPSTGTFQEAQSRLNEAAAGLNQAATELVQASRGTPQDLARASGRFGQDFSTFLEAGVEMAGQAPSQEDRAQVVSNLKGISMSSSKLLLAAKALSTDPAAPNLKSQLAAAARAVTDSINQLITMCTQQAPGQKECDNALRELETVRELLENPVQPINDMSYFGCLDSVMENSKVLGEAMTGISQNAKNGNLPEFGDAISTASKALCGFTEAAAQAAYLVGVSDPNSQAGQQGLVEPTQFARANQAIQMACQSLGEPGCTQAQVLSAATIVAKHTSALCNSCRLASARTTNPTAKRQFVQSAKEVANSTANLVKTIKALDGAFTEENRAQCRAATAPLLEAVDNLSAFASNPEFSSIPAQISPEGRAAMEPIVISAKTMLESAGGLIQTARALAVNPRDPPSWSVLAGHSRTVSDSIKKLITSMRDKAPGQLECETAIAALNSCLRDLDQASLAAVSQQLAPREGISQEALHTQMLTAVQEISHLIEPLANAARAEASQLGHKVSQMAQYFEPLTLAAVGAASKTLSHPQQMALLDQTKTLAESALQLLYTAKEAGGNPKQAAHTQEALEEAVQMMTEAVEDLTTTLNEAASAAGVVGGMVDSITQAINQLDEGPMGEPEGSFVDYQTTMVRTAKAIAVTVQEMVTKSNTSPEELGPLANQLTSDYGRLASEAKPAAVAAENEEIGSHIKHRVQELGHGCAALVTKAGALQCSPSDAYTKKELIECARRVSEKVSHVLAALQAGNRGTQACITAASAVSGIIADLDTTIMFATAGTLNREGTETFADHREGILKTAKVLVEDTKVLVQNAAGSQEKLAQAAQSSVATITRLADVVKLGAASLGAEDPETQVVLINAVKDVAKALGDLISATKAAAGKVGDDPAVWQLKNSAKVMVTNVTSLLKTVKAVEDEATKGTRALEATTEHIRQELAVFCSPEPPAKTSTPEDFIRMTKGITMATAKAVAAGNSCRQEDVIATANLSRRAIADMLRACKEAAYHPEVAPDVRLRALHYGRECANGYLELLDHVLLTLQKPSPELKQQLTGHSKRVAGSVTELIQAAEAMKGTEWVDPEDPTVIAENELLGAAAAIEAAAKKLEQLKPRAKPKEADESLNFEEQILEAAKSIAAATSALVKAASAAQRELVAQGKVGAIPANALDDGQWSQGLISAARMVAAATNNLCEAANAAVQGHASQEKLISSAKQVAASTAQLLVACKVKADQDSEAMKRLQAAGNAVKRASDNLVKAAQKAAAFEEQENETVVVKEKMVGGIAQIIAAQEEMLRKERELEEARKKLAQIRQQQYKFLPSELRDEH

Thymosin alpha-1 (human) [9] = molecular target: Thymosin alpha-1 (human) (UniProt P06454); assay: PIF affinity column + LC-MS/MS, CD8+ cell lysate
Thymosin alpha-1 (human), sequence (P06454 other isoform, or with tags, fused parts or gaps limits assumed): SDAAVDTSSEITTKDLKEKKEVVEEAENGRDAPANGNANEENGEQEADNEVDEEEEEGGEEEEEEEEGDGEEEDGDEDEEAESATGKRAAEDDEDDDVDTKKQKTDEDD

[10] = molecular target: Tubulin alpha-1C chain (human) (UniProt Q9BQE3); assay: PIF affinity column + LC-MS/MS, CD8+ cell lysate
Tubulin alpha-1C chain (human), sequence (Q9BQE3 whole entry): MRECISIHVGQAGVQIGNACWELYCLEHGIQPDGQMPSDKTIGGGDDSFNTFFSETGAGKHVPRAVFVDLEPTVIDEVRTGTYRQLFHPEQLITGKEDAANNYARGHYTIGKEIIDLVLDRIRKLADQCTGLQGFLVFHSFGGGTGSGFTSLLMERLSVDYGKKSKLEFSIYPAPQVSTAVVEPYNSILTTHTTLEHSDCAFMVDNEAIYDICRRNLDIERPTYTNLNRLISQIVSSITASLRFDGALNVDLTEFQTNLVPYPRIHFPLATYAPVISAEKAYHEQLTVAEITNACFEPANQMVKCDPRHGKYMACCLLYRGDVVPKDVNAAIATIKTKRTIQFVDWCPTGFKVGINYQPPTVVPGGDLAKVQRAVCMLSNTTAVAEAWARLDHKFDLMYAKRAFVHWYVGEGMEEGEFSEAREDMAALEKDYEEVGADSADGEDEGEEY

[11] = molecular target: Acidic leucine-rich nuclear phosphoprotein 32 family member A (human) (UniProt P39687); assay: PIF affinity column + LC-MS/MS, CD4+ cell lysate
Acidic leucine-rich nuclear phosphoprotein 32 family member A (human), sequence (P39687 whole entry): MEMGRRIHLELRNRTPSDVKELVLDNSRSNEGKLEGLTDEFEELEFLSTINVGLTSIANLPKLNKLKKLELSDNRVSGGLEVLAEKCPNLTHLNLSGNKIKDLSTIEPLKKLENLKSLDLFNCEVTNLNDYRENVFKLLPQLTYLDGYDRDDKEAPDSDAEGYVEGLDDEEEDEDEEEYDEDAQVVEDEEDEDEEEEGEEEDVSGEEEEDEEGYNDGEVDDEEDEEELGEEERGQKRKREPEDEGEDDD

[12] = molecular target: Actin, cytoplasmic 1 (human) (UniProt P60709); assay: PIF affinity column + LC-MS/MS, CD4+ cell lysate
Calreticulin (human) [13] = molecular target: Calreticulin (human) (UniProt P27797); assay: PIF affinity column + LC-MS/MS, CD4+ cell lysate
[14] = molecular target: Cartilage oligomeric matrix protein (human) (UniProt P49747); assay: PIF affinity column + LC-MS/MS, CD4+ cell lysate
Cofilin-1 (human) [15] = molecular target: Cofilin-1 (human) (UniProt P23528); assay: PIF affinity column + LC-MS/MS, CD4+ cell lysate
[16] = molecular target: Glucosidase 2 subunit beta (human) (UniProt P14314); assay: PIF affinity column + LC-MS/MS, CD4+ cell lysate
[17] = molecular target: Isoform 2 of Heat shock protein HSP 90-alpha (human) (UniProt P07900); assay: PIF affinity column + LC-MS/MS, CD4+ cell lysate
[18] = molecular target: Isoform 2 of Protein SET (human) (UniProt Q01105); assay: PIF affinity column + LC-MS/MS, CD4+ cell lysate
[19] = molecular target: Serine/arginine-rich-splicing factor 2 (human) (UniProt Q01130); assay: PIF affinity column + LC-MS/MS, CD4+ cell lysate
Serine/arginine-rich-splicing factor 2 (human), sequence (Q01130 2-221 limits assumed): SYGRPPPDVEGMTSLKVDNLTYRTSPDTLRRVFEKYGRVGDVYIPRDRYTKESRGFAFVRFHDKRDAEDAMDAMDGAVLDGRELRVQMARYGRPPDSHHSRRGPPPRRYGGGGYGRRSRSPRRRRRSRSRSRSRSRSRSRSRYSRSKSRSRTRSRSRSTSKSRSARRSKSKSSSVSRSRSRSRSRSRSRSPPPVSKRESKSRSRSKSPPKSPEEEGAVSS

Serum albumin (human) [20] = molecular target: Serum albumin (human) (UniProt P02768); assay: PIF affinity column + LC-MS/MS, CD4+ cell lysate
Thymosin alpha-1 (human) [21] = molecular target: Thymosin alpha-1 (human) (UniProt P06454); assay: PIF affinity column + LC-MS/MS, CD4+ cell lysate
[22] = molecular target: Tropomyosin alpha-4 chain (human) (UniProt P67936); assay: PIF affinity column + LC-MS/MS, CD4+ cell lysate
Tropomyosin alpha-4 chain (human), sequence (P67936 2-248 limits assumed): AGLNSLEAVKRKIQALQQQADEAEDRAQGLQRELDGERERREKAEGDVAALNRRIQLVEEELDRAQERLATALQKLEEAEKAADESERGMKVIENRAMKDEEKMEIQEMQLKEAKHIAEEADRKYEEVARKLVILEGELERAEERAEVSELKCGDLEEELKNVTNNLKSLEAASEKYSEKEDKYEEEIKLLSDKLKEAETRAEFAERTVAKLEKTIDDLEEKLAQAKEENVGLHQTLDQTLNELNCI

[23] = molecular target: Actinin alpha 1 isoform 3 (human) (UniProt P12814); assay: PIF affinity column + LC-MS/MS, CD14+ cell lysate
[24] = molecular target: Bridging integrator 2 (human) (UniProt Q9UBW5); assay: PIF affinity column + LC-MS/MS, CD14+ cell lysate
Calreticulin (human) [25] = molecular target: Calreticulin (human) (UniProt P27797); assay: PIF affinity column + LC-MS/MS, CD14+ cell lysate

**Q.** Which Ave [1] does the source give for “PIF-resin (PIF15 affinity ligand on agarose) (peptide)” here?
**A.** 3

**Q.** And the Inject 1 [1]?
**A.** 3

**Q.** What about the Inject 2 [1] of the same substance?
**A.** 3

**Q.** And the Inject 3 [1]?
**A.** 3

**Q.** And the Ave [2]?
**A.** 4

**Q.** What about the Inject 1 [2] of the same substance?
**A.** 4

**Q.** What about the Inject 2 [2] of the same substance?
**A.** 4

**Q.** What about the Inject 3 [2] of the same substance?
**A.** 5

**Q.** What about the Ave (Cofilin-1 (human) [3]) of the same substance?
**A.** 1

**Q.** And the Inject 1 (Cofilin-1 (human) [3])?
**A.** 1

**Q.** What about the Inject 2 (Cofilin-1 (human) [3]) of the same substance?
**A.** 1

**Q.** And the Inject 3 (Cofilin-1 (human) [3])?
**A.** 1

**Q.** What about the Ave [4] of the same substance?
**A.** 1

**Q.** And the Inject 1 [4]?
**A.** 1

**Q.** And the Inject 2 [4]?
**A.** 1

**Q.** What about the Inject 3 [4] of the same substance?
**A.** 1

**Q.** And the Ave [5]?
**A.** 1

**Q.** And the Inject 1 [5]?
**A.** 1

**Q.** And the Inject 2 [5]?
**A.** 1

**Q.** And the Inject 3 [5]?
**A.** 1

**Q.** And the Ave [6]?
**A.** 1

**Q.** And the Inject 1 [6]?
**A.** 1

**Q.** And the Inject 2 [6]?
**A.** 1

**Q.** What about the Inject 3 [6] of the same substance?
**A.** 1

**Q.** What about the Ave (Nucleolin (human)) of the same substance?
**A.** 1

**Q.** And the Inject 1 (Nucleolin (human))?
**A.** 1

**Q.** What about the Inject 2 (Nucleolin (human)) of the same substance?
**A.** 1

**Q.** What about the Inject 3 (Nucleolin (human)) of the same substance?
**A.** 1

**Q.** What about the Ave [7] of the same substance?
**A.** 1

**Q.** What about the Inject 1 [7] of the same substance?
**A.** 1

**Q.** What about the Inject 2 [7] of the same substance?
**A.** 1

**Q.** And the Inject 3 [7]?
**A.** 1

**Q.** And the Inject 3 (Serum albumin (human) [8])?
**A.** 8

**Q.** What about the Ave (Talin-1 (human)) of the same substance?
**A.** 1

**Q.** And the Inject 1 (Talin-1 (human))?
**A.** 1

**Q.** What about the Inject 2 (Talin-1 (human)) of the same substance?
**A.** 1

**Q.** What about the Inject 3 (Talin-1 (human)) of the same substance?
**A.** 1

**Q.** And the Inject 3 (Thymosin alpha-1 (human) [9])?
**A.** 4

**Q.** What about the Ave [10] of the same substance?
**A.** 1

**Q.** What about the Inject 1 [10] of the same substance?
**A.** 1

**Q.** What about the Inject 2 [10] of the same substance?
**A.** 1

**Q.** What about the Inject 3 [10] of the same substance?
**A.** 1

**Q.** And the Ave [11]?
**A.** 1

**Q.** What about the Inject 1 [11] of the same substance?
**A.** 1

**Q.** What about the Inject 2 [11] of the same substance?
**A.** 1

**Q.** And the Inject 3 [11]?
**A.** 1

**Q.** And the Ave [12]?
**A.** 2

**Q.** And the Inject 1 [12]?
**A.** 2

**Q.** What about the Inject 2 [12] of the same substance?
**A.** 2

**Q.** What about the Inject 3 [12] of the same substance?
**A.** 2

**Q.** What about the Ave (Calreticulin (human) [13]) of the same substance?
**A.** 4

**Q.** And the Inject 1 (Calreticulin (human) [13])?
**A.** 4

**Q.** And the Inject 2 (Calreticulin (human) [13])?
**A.** 4

**Q.** What about the Inject 3 (Calreticulin (human) [13]) of the same substance?
**A.** 4

**Q.** What about the Ave [14] of the same substance?
**A.** 10

**Q.** What about the Inject 1 [14] of the same substance?
**A.** 10

**Q.** And the Inject 2 [14]?
**A.** 10

**Q.** What about the Inject 3 [14] of the same substance?
**A.** 11

**Q.** And the Ave (Cofilin-1 (human) [15])?
**A.** 1

**Q.** And the Inject 1 (Cofilin-1 (human) [15])?
**A.** 1

**Q.** What about the Inject 2 (Cofilin-1 (human) [15]) of the same substance?
**A.** 1

**Q.** And the Inject 3 (Cofilin-1 (human) [15])?
**A.** 1

**Q.** What about the Ave [16] of the same substance?
**A.** 1

**Q.** What about the Inject 1 [16] of the same substance?
**A.** 1

**Q.** What about the Inject 2 [16] of the same substance?
**A.** 1

**Q.** What about the Inject 3 [16] of the same substance?
**A.** 1

**Q.** And the Ave [17]?
**A.** 4

**Q.** And the Inject 1 [17]?
**A.** 4

**Q.** And the Inject 2 [17]?
**A.** 4

**Q.** And the Inject 3 [17]?
**A.** 4

**Q.** What about the Ave [18] of the same substance?
**A.** 4

**Q.** What about the Inject 2 [18] of the same substance?
**A.** 4

**Q.** And the Inject 3 [18]?
**A.** 4

**Q.** What about the Inject 1 [19] of the same substance?
**A.** 1

**Q.** And the Ave (Serum albumin (human) [20])?
**A.** 8

**Q.** What about the Inject 1 (Serum albumin (human) [20]) of the same substance?
**A.** 4

**Q.** What about the Inject 3 (Serum albumin (human) [20]) of the same substance?
**A.** 12

**Q.** And the Ave (Thymosin alpha-1 (human) [21])?
**A.** 5

**Q.** And the Inject 1 (Thymosin alpha-1 (human) [21])?
**A.** 4

**Q.** What about the Inject 2 (Thymosin alpha-1 (human) [21]) of the same substance?
**A.** 5

**Q.** And the Ave [22]?
**A.** 4

**Q.** And the Inject 1 [22]?
**A.** 4

**Q.** What about the Inject 2 [22] of the same substance?
**A.** 4

**Q.** And the Inject 3 [22]?
**A.** 4

**Q.** And the Ave [23]?
**A.** 4

**Q.** What about the Inject 1 [23] of the same substance?
**A.** 5

**Q.** What about the Inject 2 [23] of the same substance?
**A.** 4

**Q.** And the Ave [24]?
**A.** 1

**Q.** What about the Inject 1 [24] of the same substance?
**A.** 1

**Q.** What about the Inject 3 [24] of the same substance?
**A.** 0

**Q.** And the Inject 2 (Calreticulin (human) [25])?
**A.** 4
